Values quoted from earlier work as cited in PMC13351906.

Molecular target: IL-6 receptor (Homo sapiens) (UniProt P08887)
Test: 125I-rhIL-6 radioligand binding

Chain of IL-6 (P05231 30-212): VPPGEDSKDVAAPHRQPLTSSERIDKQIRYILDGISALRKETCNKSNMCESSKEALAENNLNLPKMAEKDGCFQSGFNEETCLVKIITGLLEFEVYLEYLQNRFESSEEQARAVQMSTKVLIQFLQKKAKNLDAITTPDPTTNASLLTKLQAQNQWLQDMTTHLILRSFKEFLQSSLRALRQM
Chain of UniProt P08887 (P08887 20-365): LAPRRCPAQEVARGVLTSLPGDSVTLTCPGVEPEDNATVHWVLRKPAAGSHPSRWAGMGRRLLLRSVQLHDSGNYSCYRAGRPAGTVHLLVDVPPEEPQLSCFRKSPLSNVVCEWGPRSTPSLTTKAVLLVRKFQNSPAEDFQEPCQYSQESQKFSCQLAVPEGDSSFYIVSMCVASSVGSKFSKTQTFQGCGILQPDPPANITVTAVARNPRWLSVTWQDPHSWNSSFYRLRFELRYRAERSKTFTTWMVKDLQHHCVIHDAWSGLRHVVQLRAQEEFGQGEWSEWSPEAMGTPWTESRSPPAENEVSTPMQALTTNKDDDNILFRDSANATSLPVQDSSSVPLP

IL-6 (from UniProt P05231)
Kd: 0.44 nM
